# Experimental data from patent publication US20160257744A1 (Genentech, published 2016).
# T1: interleukin 5 (IL5) (human, UniProt P05113 20-134)
# T1 construct: also called human IL5 (R&D Systems)
# T1 sequence (looked up): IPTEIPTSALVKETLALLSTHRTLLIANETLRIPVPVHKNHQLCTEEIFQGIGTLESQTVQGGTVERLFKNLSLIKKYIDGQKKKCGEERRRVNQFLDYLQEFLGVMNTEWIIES
# T2: interleukin 4 (IL4) (UniProt P05112 25-153)
# T2 sequence (looked up): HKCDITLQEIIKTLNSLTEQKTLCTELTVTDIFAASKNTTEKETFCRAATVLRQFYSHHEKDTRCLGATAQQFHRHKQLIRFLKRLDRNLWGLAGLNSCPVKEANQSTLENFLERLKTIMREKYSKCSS
# Key:
# interleukin 13 (IL13) [1] = biological target: T3, interleukin 13 (IL13) (UniProt P35225 35-146, limits assumed); assay: phage ELISA: direct binding of the phage clone to antigen-coated wells (NB = no detectable binding)
# T3 sequence (P35225 35-146 limits assumed): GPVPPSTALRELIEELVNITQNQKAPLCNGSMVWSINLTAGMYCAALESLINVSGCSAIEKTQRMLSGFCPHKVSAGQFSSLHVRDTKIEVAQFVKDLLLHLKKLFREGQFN
# interleukin 5 (IL5) [2] = biological target: T1, interleukin 5 (IL5); assay: phage competition ELISA: Fab-phage incubated 2 h with serial dilutions of the antigen in solution, unbound phage captured on antigen-coated wells, anti-M13-HRP; IC50 = antigen concentration inhibiting 50% of phage binding
# Protocol: (§1) Fab displaying phage was first incubated with serial dilutions of the respective antigens in solution for 2 h, unbound phage was then briefly captured by antigen coated ELISA wells and detected with anti-M13 HRP conjugate. The concentration of antigen inhibiting 50% of phage binding to antigen coated well is calculated as IC₅₀. NB denotes no detectable binding of phage clone directly to the antigens coated wells.
# interleukin 4 (IL4) [3] = biological target: T2, interleukin 4 (IL4); assay: as above
# Protocol: as §1
# interleukin 5 (IL5) [4] = biological target: T1, interleukin 5 (IL5); assay: phage ELISA: direct binding of the phage clone to antigen-coated wells (NB = no detectable binding)
# interleukin 13 (IL13) [5] = biological target: T3, interleukin 13 (IL13); assay: phage competition ELISA: Fab-phage incubated 2 h with serial dilutions of the antigen in solution, unbound phage captured on antigen-coated wells, anti-M13-HRP; IC50 = antigen concentration inhibiting 50% of phage binding
# Protocol: as §1
# interleukin 5 (IL5) [6] = biological target: T1, interleukin 5 (IL5); assay: phage competition ELISA (phage IC50), soluble IL5 against IL5-coated wells
# Protocol: as §1
# (§2) The relative affinity of each clone was assessed by phage IC₅₀ as above.
# interleukin 5 (IL5) [7] = biological target: T1, interleukin 5 (IL5); assay: SPR, Fab over immobilized IL5
# interleukin 5 (IL5) [8] = biological target: T1, interleukin 5 (IL5); assay: SPR (Biacore), Fab over CM5 chip with immobilized human IL5, 25 °C
# interleukin 4 (IL4) [9] = biological target: T2, interleukin 4 (IL4); assay: SPR (Biacore), Fab over CM5 chip with immobilized IL4, 25 °C
# interleukin 4 (IL4) [10] = biological target: T2, interleukin 4 (IL4); assay: phage competition ELISA (phage IC50), soluble IL4 against IL4-coated wells
# Protocol: as §1, §2
binder,measurement,setting,value
"B1, anti-IL4/IL5 dual specific variant of hu19C11, Fab displayed on phage (Fab, V domains shown, also called clone B1) VH: EVQLVQSGAEVKKPGASVKVSCKASGYTFTDYLMHWVRQAPGQGLEWIAVIVSITGRTYYADDFKGRVTITRDTSTSTAYLELSSLRSEDTAVYYCARGGIFYGMDYWGQGTLVTVSS VL: DIQMTQSPSSLSASVGDRVTITCKASQSVINDAAWYQQKPGKAPKLLIYYTSHRYTGVPSRFSGSGSGTDFTLTISSLQEDFATYYCQQDYTPFPLTFGQGTKVEIKR",binding result,interleukin 13 (IL13) [1],no binding
same,IC50,interleukin 5 (IL5) [2],~1000 nM
same,IC50,interleukin 4 (IL4) [3],~1000 nM
"F2, anti-IL4/IL13 dual specific variant of hu19C11, Fab displayed on phage (Fab, V domains shown) VH: EVQLVQSGAEVKKPGASVKVSCKASGYTFTDYSMHWVRQAPGQGLEWIGIIFYTGHTYYADDFKGRVTITRDTSTSTAYLELSSLRSEDTAVYYCARGGIFYGMDYWGQGTLVTVSS VL: DIQMTQSPSSLSASVGDRVTITCKASQSVINDAAWYQQKPGKAPKLLIYYTSHRYTGVPSRFSGSGSGTDFTLTISSLQEDFATYYCQQDYTSPWTFGQGTKVEIKR",binding result,interleukin 5 (IL5) [4],no binding
same,IC50,interleukin 4 (IL4) [3],14.8 nM
same,IC50,interleukin 13 (IL13) [5],~1000 nM
"E7, anti-IL4/IL5 dual specific variant of hu19C11, Fab displayed on phage (Fab, V domains shown, also called clone E7) VH: EVQLVQSGAEVKKPGASVKVSCKASGYTFTDYFIHWVRQAPGQGLEWIAGIVYDATGFTTYADDFKGRVTITRDTSTSTAYLELSSLRSEDTAVYYCARGGIFYGMDYWGQGTLVTVSS VL: DIQMTQSPSSLSASVGDRVTITCKASQSVINDAAWYQQKPGKAPKLLIYYTSHRYTGVPSRFSGSGSGTDFTLTISSLQEDFATYYCQQDYTSPWTFGQGTKVEIKR",binding result,interleukin 13 (IL13) [1],no binding
same,IC50,interleukin 5 (IL5) [2],~1000 nM
same,IC50,interleukin 5 (IL5) [6],~1000 nM
"1C60, affinity-matured variant of E7, purified as Fab (Fab, V domains shown, Purified Fab for SPR) VH: EVQLVQSGAEVKKPGASVKVSCKASGYTFTDYFIHWVRQAPGQGLEWIAGIVYDATGFTVYADDFKGRVTITRDTSTSTAYLELSSLRSEDTAVYYCARGGIFYGMDYWGQGTLVTVSS VL: DIQMTQSPSSLSASVGDRVTITCKASQSVINDAAWYQQKPGKAPKLLIYYTSHRYTGVPSRFSGSGSGTDFTLTISSLQEDFATYYCQQDYKHPWTFGQGTKVEIKR",Kd,interleukin 5 (IL5) [7],44.4 nM
same,fold improvement of affinity toward IL5 against E7,interleukin 5 (IL5) [7],20 fold
same,koff,interleukin 5 (IL5) [8],0.000552 s⁻¹
same,kon,interleukin 5 (IL5) [8],12400 M⁻¹ s⁻¹
same,Kd,interleukin 4 (IL4) [9],4.9 nM
same,koff,interleukin 4 (IL4) [9],0.00342 s⁻¹
same,kon,interleukin 4 (IL4) [9],697000 M⁻¹ s⁻¹
"1C.36 (Fab, V domains shown, same clone as m16 and m18, here in the phage format) VH: EVQLVQSGAEVKKPGASVKVSCKASGYTFTDYFIHWVRQAPGQGLEWIGGIVYDATGFTTYAEEFKGRVTITRDTSTSTAYLELSSLRSEDTAVYYCARGGIFYGMDYWGQGTLVTVSS VL: DIQMTQSPSSLSASVGDRVTITCKASQSVINDAAWYQQKPGKAPKLLIYYTSHRYTGVPSRFSGSGSGTDFTLTISSLQEDFATYYCQQDYTHPWTFGQGTKVEIKR",IC50,interleukin 4 (IL4) [10],2.1 nM
same,IC50,interleukin 5 (IL5) [6],0.9 nM
"F1, anti-IL4/IL13 dual specific variant of hu19C11, Fab displayed on phage (Fab, V domains shown) VH: EVQLVQSGAEVKKPGASVKVSCKASGYTFTDYSMHWVRQAPGQGLEWIGVIFQSGATYYADDFKGRVTITRDTSTSTAYLELSSLRSEDTAVYYCARGGIFYGMDYWGQGTLVTVSS VL: DIQMTQSPSSLSASVGDRVTITCKASQSVINDAAWYQQKPGKAPKLLIYYTSHRYTGVPSRFSGSGSGTDFTLTISSLQEDFATYYCQQDYTSPWTFGQGTKVEIKR",binding result,interleukin 5 (IL5) [4],no binding
same,IC50,interleukin 4 (IL4) [3],22.3 nM
same,IC50,interleukin 13 (IL13) [5],~1000 nM
"1C.60 (Fab, V domains shown, same clone as m17 and m19, here in the phage format) VH: EVQLVQSGAEVKKPGASVKVSCKASGYTFTDYFIHWVRQAPGQGLEWIAGIVYDATGFTVYADDFKGRVTITRDTSTSTAYLELSSLRSEDTAVYYCARGGIFYGMDYWGQGTLVTVSS VL: DIQMTQSPSSLSASVGDRVTITCKASQSVINDAAWYQQKPGKAPKLLIYYTSHRYTGVPSRFSGSGSGTDFTLTISSLQEDFATYYCQQDYKHPWTFGQGTKVEIKR",IC50,interleukin 4 (IL4) [10],1.1 nM
same,IC50,interleukin 5 (IL5) [6],3.67 nM
